From paper doi:10.1101/2024.05.17.594765 come the findings set out here.

Sequences and labels used below:
B1: C-terminally Halo-tagged full-length zyxin (zyxin-Halo) [modified: Janelia Fluor 646 Halo-ligand conjugated to the Halo tag; Janelia Fluor 646 Halo-ligand conjugated to the Halo tag] [human] / C-terminally … (parent)
chain 1: MSETVICSSRATVMLYDDGNKRWLPAGTGPQAFSRVQIYHNPTANSFRVVGRKMQPDQQVVINCAIVRGVKYNQATPNFHQWRDARQVWGLNFGSKEDAAQFAAGMASALEALEGGGPPPPPALPTWSVPNGPSPEEVEQQKRQQPGPSEHIERRVSNAGGPPAPPAGGPPPPPGPPPPPGPPPPPGLPPSGVPAAAHGAGGGPPPAPPLPAAQGPGGGGAGAPGLAAAIAGAKLRKVSKQEEASGGPTAPKAESGRSGGGGLMEEMNAMLARRRKATQVGEKTPKDESANQEEPEARVPAQSESVRRPWEKNSTTLPRMKSSSSVTTSETQPCTPSSSDYSDLQRVKQELLEEVKKELQKVKEEIIEAFVQELRKRGSP
chain 2: MAAPRPSPAISVSVSAPAFYAPQKKFGPVVAPKPKVNPFRPGDSEPPPAPGAQRAQMGRVGEIPPPPPEDFPLPPPPLAGDGDDAEGALGGAFPPPPPPIEESFPPAPLEEEIFPSPPPPPEEEGGPEAPIPPPPQPREKVSSIDLEIDSLSSLLDDMTKNDPFKARVSSGYVPPPVATPFSSKSSTKPAAGGTAPLPPWKSPSSSQPLPQVPAPAQSQTQFHVQPQPQPKPQVQLHVQSQTQPVSLANTQPRGPPASSPAPAPKFSPVTPKFTPVASKFSPGAPGGSGSQPNQKLGHPEALSAGTGSPQPPSFTYAQQREKPRVQEKQHPVPPPAQNQNQVRSPGAPGPLTLKEVEELEQLTQQLMQDMEHPQRQNVAVNELCGRCHQPLARAQPAVRALGQLFHIACFTCHQCAQQLQGQQFYSLEGAPYCEGCYTDTLEKCNTCGEPITDRMLRATGKAYHPHCFTCVVCARPLEGTSFIVDQANRPHCVPDYHKQYAPRCSVCSEPIMPEPGRDETVRVVALDKNFHMKCYKCEDCGKPLSIEADDNGCFPLDGHVLCRKCHTARAQT

Variants of B1 are the subject of one assay. Nature of the assay: force reconstitution TIRF assay. To be noted: with C-terminally Halo-tagged VASP (VASP-Halo) [modified: Janelia Fluor 549 Halo-ligand conjugated to the Halo tag, images were acquired every 1 s, read off a plot.
In the case of chain 2 F71A F93A F104A F114A, the screen value was determined as 38.

In the next assay the parent is B1. The experiment in a line: force reconstitution TIRF assay. To be noted: with C-terminally Halo-tagged VASP (VASP-Halo) [modified: Janelia Fluor 549 Halo-ligand conjugated to the Halo tag, images were acquired every 1 s, read off a plot. This is another data set of the same source.
On to chain 2 F71A F93A F104A F114A, for which the screen value was 2.6 s.
